Measured values taken from the supplement of paper PMC9732359.
± gives the uncertainty stated by the source.

Assay: protein stability index of a GFP-peptide fusion (yeast GPS) (PSI 1-4); higher = more stable; sorted into four equal gates, so the index is relative within each strain
In short: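 Tiled 17-residue yeast protein peptides were fused downstream of GFP in a plasmid that also expresses Cherry, and the pooled library was carried in yeast. Mid-log cultures in leucine-free medium were sorted into four equal gates by GFP/Cherry fluorescence ratio, and plasmids from each gate were PCR-amplified and Illumina-sequenced, with reads assigned to strains by barcodes. The protein stability index for each peptide was each gate's read frequency times its gate number, summed.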

Sequence | protein stability index (doa10∆) | protein stability index (pdr5∆) | protein stability index (san1∆) | protein stability index (ubr1∆)
CSFAVTKSSLNDLDYDL [YML103C/NUP188] | 3.04 ± 0.1 | 3.13 ± 0.091 | 3.01 ± 0.078 | 3.1 ± 0.055
CSHCGCVYVPNFNASLQ [SNM1] | 3.36 ± 0.11 | 2.42 ± 0.11 | 3.13 ± 0.16 | 1.51 ± 0.1
CSRCGSVTRAGNIISSD [SIN4] | – | 3.33 ± 0.26 | – | 3.03 ± 0.22
CTKLAVYYSKRGFKVGL [SRP54] | 2.57 ± 0.14 | 2.73 ± 0.13 | 2.23 ± 0.099 | 2.54 ± 0.06
CTNLTNRTLYELADLPK [GRR1] | 2.93 ± 0.058 | 3.05 ± 0.048 | 2.92 ± 0.036 | 3.1 ± 0.046
CVDDNSKISFIDEDKLY [SSN2] | 3.59 ± 0.25 | 2.98 ± 0.1 | – | 2.82 ± 0.29
CVKNHGQSSSIQSSLMT [YCS4] | 2.48 ± 0.17 | 2.67 ± 0.14 | 2.83 ± 0.052 | 3.05 ± 0.1
CVNLSLFDARFERKNPH [SRB8] | 3.2 ± 0.089 | 3.16 ± 0.061 | 3.34 ± 0.083 | 3.17 ± 0.053
CVVLGCERRSTLKLQDT [PRE6] | 1.78 ± 0.074 | 1.66 ± 0.073 | 1.91 ± 0.13 | 1.28 ± 0.062
CWAVRADVHFLDCDGGF [RRP45] | 2.31 ± 0.2 | 2.65 ± 0.14 | 2.9 ± 0.085 | 2.72 ± 0.064
CWLSSVDVNTQKSFEQL [RPN11] | 2.69 ± 0.095 | 1.28 ± 0.19 | 1.4 ± 0.29 | 1.35 ± 0.065
CYLRWQHLRNEHGMNAP [SNF2] | 3.15 ± 0.072 | 3.33 ± 0.1 | 3.4 ± 0.087 | 2.9 ± 0.066
DAENEWNVEKFKKDFEV [RPC40] | 1.39 ± 0.12 | 1.7 ± 0.21 | 1.85 ± 0.16 | 1.82 ± 0.11
DANLNDLPETGFFENIE [IRR1] | 3.13 ± 0.2 | 3.24 ± 0.13 | 3.35 ± 0.1 | 3.27 ± 0.12
DCIIRLPVKWETTTQFK [FAS1] | 1.74 ± 0.083 | 2.03 ± 0.074 | 1.94 ± 0.091 | 2.43 ± 0.11
DDDERVEYNLFTNRSTM [BRN1] | 2.97 ± 0.12 | 3.2 ± 0.12 | 3.11 ± 0.07 | 3.1 ± 0.068
DDDQIESLKKSPIFEVL [ARP9] | 3.16 ± 0.064 | 3.15 ± 0.046 | 3.06 ± 0.033 | 3.2 ± 0.04
DDEKNDKQARKQRTKKE [SNF2] | 3.35 ± 0.3 | 3.53 ± 0.11 | 3.06 ± 0.088 | 3.18 ± 0.1
DDESEQISLNRLIDSMK [RRI1] | 3.03 ± 0.16 | 3.11 ± 0.28 | – | 3.15 ± 0.14
DDFMHSETREKELESID [RPB4] | – | – | 2.74 ± 0.12 | 3.2 ± 0.19
DDHNGEVWSVSWNLTGT [YGL100W/SEH1] | 2.73 ± 0.069 | 3.04 ± 0.073 | 2.64 ± 0.096 | 2.73 ± 0.085
DDINKAKAVWENIIIVG [ARP9] | 1.58 ± 0.05 | 2.17 ± 0.082 | 1.67 ± 0.092 | 2.03 ± 0.073
DDISRQVARTNLDGTKA [ROX3] | 3.12 ± 0.096 | 2.88 ± 0.091 | 3.09 ± 0.087 | 3.11 ± 0.071
DDLALPYQHPPNIFPNL [ITC1] | 3.37 ± 0.097 | 3.43 ± 0.12 | 3.43 ± 0.074 | 3.21 ± 0.046
DDSDNVMSSDDENAPVA [PRE10] | 3.12 ± 0.087 | 3.42 ± 0.11 | 3.49 ± 0.11 | 3.11 ± 0.14

Sequence | protein stability index (doa10∆) | protein stability index (pdr5∆) | protein stability index (san1∆) | protein stability index (ubr1∆)
DDSSSDNDSLTDLESLS [SIR4] | 3.15 ± 0.058 | 3.28 ± 0.043 | 3.09 ± 0.044 | 2.95 ± 0.042
DDVRDFVIRREVTKGEK [RPS6A] | 3.37 ± 0.14 | 3.4 ± 0.094 | 3.08 ± 0.14 | 3.62 ± 0.18
DDYKDLTCSLYELYINK [IRR1] | 2.74 ± 0.084 | 2.75 ± 0.12 | 3.16 ± 0.056 | 2.94 ± 0.079
DEADKMIDLGFEDQVTN [PRP28] | 3.16 ± 0.098 | 3.34 ± 0.11 | 3.16 ± 0.11 | 3.1 ± 0.061
DEAEGRFEVINNETEQL [SMC1] | 2.07 ± 0.072 | 2.56 ± 0.076 | 3.04 ± 0.14 | 2.82 ± 0.1
DEDEDNDLDEDDIYDIS [RPN4] | – | 3.46 ± 0.2 | 3.56 ± 0.11 | 3.33 ± 0.15
DEDKNFPRSRSRSRSSI [ESC2] | 3.13 ± 0.15 | 3.25 ± 0.14 | 3.12 ± 0.14 | 3.27 ± 0.07
DEDWSVRIDKALELDDT [ECM29] | 2.76 ± 0.18 | 3.38 ± 0.17 | – | –
DEEAAGASTVMKTKTIN [PRP8] | 3.34 ± 0.089 | 3.12 ± 0.071 | 3.28 ± 0.063 | 3.19 ± 0.061
DEEETAEGQTNSISDFL [RPN1] | 2.84 ± 0.14 | 3.13 ± 0.094 | 2.94 ± 0.078 | 3.04 ± 0.069
DEKGNEIKVGKQRFQGC [ARP9] | 2.88 ± 0.18 | 3.1 ± 0.17 | 3.06 ± 0.1 | 3.41 ± 0.1
DENAPVATNANATTDQE [PRE10] | 3.09 ± 0.23 | 3.33 ± 0.15 | 3.4 ± 0.17 | –
DENGDKNDNGGKMNNEV [SWI3] | 3.15 ± 0.084 | 3.41 ± 0.077 | 3.12 ± 0.044 | 3.33 ± 0.097
DENKASATSKPAFSFGA [YJL041W/NSP1] | 2.96 ± 0.063 | 2.98 ± 0.055 | 3 ± 0.05 | 2.97 ± 0.055
DENPDLLGYTGIPTDKG [PRE8] | 1.99 ± 0.05 | 2.48 ± 0.063 | 2.71 ± 0.05 | 2.28 ± 0.044
DENTSGKISKPRFLNKQ [PRP28] | – | 3.4 ± 0.23 | – | 3.16 ± 0.15
DERSQGEKNFTSAHLKL [SMC4] | 3.17 ± 0.16 | 3.4 ± 0.13 | 3.14 ± 0.076 | 3.36 ± 0.11
DERTKEFEKKLQETLNK [YIL149C/MLP2] | – | – | 2.88 ± 0.12 | –
DEVNDRSDISDSEGGLF [PCI8] | 3.33 ± 0.28 | 3.08 ± 0.16 | 3.46 ± 0.072 | 3.06 ± 0.12
DFELAVGKVMNKNQETA [RPT6] | 2.37 ± 0.21 | – | – | –
DFELEISWCSLSETNGL [PRE10] | 2.92 ± 0.076 | 2.93 ± 0.094 | 2.84 ± 0.083 | 2.84 ± 0.069
DFKAKYCDSMGRPQRKM [RPB5] | 3.44 ± 0.24 | 3.18 ± 0.15 | 3.22 ± 0.17 | 3.32 ± 0.1
DFNQAFEGTDDNEEASV [BRN1] | 3.09 ± 0.14 | 3.17 ± 0.13 | 3.39 ± 0.15 | 3.53 ± 0.12
DFQPTELFDILSTSEDV [IRR1] | 3.04 ± 0.11 | 2.42 ± 0.1 | 2.82 ± 0.074 | 3.08 ± 0.081
DGGKTLRACAANVDQIS [YMR129W/POM152] | 2.15 ± 0.13 | 2.94 ± 0.11 | 2.94 ± 0.13 | 2.37 ± 0.11
